Measured values reported in US20250313635A1, “ANTI-INTEGRIN ANTIBODIES AND USES THEREOF” (Merck Sharp & Dohme LLC, priority 2022, published 2025).

B1: Ab-29 (antibody, V domains shown)
VH: ELQLQESGPGLVKPSETLSLTCTVSGGSISSNSYYWGWIRQPPGKGLEWIGSIYYSGSTYYNPSLKSRVTISVDTSKNQFSLKLSSVTAADTAVYYCARVRRVAGRGDSYYYYYGMDVWGQGTTVTVSS
VL: DIQMTQSPSSVSASVGDRVTITCRASQGISRWLAWYQQKPGKAPKLLIYAASSLQSGVPSRFSGSGSGTDFTLTISSLQPEDFATYYCQQAISHPWTFGGGTKVEIK
B2: Ab-30 (antibody, V domains shown)
VH: EVQLQESGPGLVKPSETLSLTCAVSGYSISSGYYWGWIRQPPGKGLEWIGSIYHSGNTYYNPSLKSRVTISVDTSKNQFSLKLSSVTAADTAVYYCARVPRYSRGDAYYYYGMDVWGQGTTVTVSS
VL: DIQMTQSPSTLSASVGDRVTITCRASQSISSWLAWYQQKPGKAPKLLIYKASSLESGVPSRFSGSGSGTEFTLTISSLQPDDFATYYCQQVKIYPPYTFGGGTKVEIK
B3: Ab-31 (antibody, V domains shown)
VH: B2 VH
VL: DIQMTQSPSTLSASVGDRVTITCRASQSIGSWLAWYQQKPGKAPKLLIYKASSLESGVPSRFSGSGSGTEFTLTISSLQPDDFATYYCQQSGPYPWTFGGGTKVEIK

What follows are binders tested against recombinant mouse αvβ8 integrin extracellular domains (mouse) (UniProt P43406) (assay: AlphaLISA blocking of mouse LAP-6His binding).
recombinant mouse αvβ8 integrin extracellular domains (mouse), sequence (P43406 other isoform, or with tags, fused parts or gaps, form in doubt, chain 1 of 2): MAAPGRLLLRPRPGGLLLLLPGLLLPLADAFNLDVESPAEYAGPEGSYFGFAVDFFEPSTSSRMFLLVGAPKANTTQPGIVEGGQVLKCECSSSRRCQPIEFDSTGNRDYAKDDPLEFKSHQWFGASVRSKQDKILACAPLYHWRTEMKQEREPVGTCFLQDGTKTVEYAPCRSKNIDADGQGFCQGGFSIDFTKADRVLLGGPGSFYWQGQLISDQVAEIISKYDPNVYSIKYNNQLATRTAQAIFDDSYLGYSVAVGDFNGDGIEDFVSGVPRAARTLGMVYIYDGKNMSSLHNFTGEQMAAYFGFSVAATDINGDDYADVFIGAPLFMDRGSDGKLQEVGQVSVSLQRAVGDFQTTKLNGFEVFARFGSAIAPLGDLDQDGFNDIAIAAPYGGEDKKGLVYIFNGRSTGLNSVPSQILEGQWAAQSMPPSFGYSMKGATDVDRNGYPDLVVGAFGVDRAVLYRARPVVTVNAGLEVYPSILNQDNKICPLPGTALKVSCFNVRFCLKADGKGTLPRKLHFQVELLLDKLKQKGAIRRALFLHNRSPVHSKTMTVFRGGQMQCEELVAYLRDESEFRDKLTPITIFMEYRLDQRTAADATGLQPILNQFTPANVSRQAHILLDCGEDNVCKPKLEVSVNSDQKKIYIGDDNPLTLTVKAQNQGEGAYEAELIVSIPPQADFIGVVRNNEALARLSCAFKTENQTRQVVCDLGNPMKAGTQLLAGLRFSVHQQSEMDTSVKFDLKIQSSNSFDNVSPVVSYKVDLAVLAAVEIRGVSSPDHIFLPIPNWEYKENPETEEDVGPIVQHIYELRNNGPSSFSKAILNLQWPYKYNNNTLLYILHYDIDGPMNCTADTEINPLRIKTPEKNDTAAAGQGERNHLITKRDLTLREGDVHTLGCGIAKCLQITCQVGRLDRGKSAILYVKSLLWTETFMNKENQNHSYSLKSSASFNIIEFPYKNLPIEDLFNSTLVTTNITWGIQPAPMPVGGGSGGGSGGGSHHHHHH
recombinant mouse αvβ8 integrin extracellular domains (mouse), sequence (Q0VBD0 other isoform, or with tags, fused parts or gaps, form in doubt, chain 2 of 2, further chain): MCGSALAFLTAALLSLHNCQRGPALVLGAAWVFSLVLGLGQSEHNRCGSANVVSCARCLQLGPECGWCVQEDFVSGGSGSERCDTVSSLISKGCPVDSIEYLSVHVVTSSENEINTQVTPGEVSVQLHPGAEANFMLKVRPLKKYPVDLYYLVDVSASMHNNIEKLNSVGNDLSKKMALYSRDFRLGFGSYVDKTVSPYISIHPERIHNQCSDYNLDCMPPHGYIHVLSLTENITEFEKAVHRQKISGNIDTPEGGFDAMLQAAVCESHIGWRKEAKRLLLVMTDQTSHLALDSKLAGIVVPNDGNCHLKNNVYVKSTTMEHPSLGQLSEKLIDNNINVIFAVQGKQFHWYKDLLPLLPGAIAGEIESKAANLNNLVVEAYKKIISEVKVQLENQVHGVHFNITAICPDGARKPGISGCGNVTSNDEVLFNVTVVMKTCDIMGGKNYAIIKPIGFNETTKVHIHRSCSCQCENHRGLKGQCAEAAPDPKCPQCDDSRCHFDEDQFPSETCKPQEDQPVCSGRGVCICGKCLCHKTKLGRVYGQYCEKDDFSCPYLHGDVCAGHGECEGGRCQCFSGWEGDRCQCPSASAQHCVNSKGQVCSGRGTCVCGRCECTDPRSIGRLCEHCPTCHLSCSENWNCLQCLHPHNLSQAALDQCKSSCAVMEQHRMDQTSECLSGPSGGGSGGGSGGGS

Binder	IC50 [nM]
B1	102
B2	25.1
B3	66.3
